From PMC12121997

Columns and labels:
[1] = biological target: Nucleosome core particle: Cse4-containing histone octamer wrapped with Widom 601 DNA (S. cerevisiae | K. lactis) (UniProt P36012); experiment: optical trap assay (bead-microtubule binding, then rupture force); 40 nM His6-NCPs held on anti-His6 polystyrene beads; 10 nM OA or 20 nM Mif2, 10 nM 2D-MIND, 10 nM Ndc80c and 5 nM Dam1c free in solution; bead brought by laser trap to the dynamic plus end of a surface-anchored microtubule; 1x BRB80, 1 mM GTP, 16 uM tubulin, room temperature; 1 pN preload, then ramping force until detachment; negative controls with OA or Mif2 omitted
[2] = biological target: Nucleosome core particle: Cse4-containing histone octamer wrapped with chimeric centromeric DNA (CCEN) (S. cerevisiae | K. lactis) (UniProt P36012); experiment: as above

- percent of NCP-coated beads that bound microtubules [1]: > 78%
- percent of NCP-coated beads that bound microtubules [2]: > 78%
Substance: Mif2-linker-(27-392)MBP (from UniProt P35201 1-549) (natural protein)
